This note sets out measurements from paper PMC3149608, “A Novel Acyl-CoA Beta-Transaminase Characterized from a Metagenome” (PLoS ONE, 2011).

The target of data set [1] is T1, Kat (HemL-like), 3-aminobutyryl-CoA aminotransferase (Cloacimonas acidaminivorans (SeqCode), UniProt B0VH76).
T1 construct: full-length CDS in pEXP-5-NT/TOPO, E. coli; by primers starts (M)AEKLKLA, ends EVKKML
T1 sequence (B0VH76 1-414): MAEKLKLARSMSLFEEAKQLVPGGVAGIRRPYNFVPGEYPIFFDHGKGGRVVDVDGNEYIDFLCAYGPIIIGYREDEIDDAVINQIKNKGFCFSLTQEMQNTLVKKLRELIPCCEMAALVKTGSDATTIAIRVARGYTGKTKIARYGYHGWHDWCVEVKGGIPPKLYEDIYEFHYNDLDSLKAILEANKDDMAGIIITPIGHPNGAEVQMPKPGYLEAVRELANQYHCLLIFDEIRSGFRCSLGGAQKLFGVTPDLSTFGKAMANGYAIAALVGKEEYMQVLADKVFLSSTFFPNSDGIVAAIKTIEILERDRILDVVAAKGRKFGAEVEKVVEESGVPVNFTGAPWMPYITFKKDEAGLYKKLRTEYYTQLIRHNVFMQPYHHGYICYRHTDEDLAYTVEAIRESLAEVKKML
Description: spectrophotometric, acetoacetyl-CoA formation at […] nm. It counts as biochemical. The settings on record: 25 µM (3S)-3-aminobutyryl-CoA; 50 mM Tris/HCl pH 8.1, 5 mM MgCl2.

Data set [2] addresses T2, AtoA/AtoD complex (butyrate-acetoacetate CoA transferase) (Cloacimonas acidaminivorans (SeqCode), UniProt B0VIH1+B0VIH2).
T2 construct: each subunit in pEXP-5-NT/TOPO, E. coli, mixed equimolar; by primers AtoA (M)ALDKRAM...ERVNTF, AtoD (M)VQIISA...VLAKEN
T2 sequence (B0VIH1 1-218): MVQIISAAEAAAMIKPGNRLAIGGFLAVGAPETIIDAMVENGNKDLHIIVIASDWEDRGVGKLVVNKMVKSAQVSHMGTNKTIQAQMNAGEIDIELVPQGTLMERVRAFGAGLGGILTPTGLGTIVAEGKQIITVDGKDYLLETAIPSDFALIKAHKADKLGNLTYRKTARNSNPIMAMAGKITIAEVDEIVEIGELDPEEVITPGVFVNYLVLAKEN
T2 sequence (B0VIH2 1-217): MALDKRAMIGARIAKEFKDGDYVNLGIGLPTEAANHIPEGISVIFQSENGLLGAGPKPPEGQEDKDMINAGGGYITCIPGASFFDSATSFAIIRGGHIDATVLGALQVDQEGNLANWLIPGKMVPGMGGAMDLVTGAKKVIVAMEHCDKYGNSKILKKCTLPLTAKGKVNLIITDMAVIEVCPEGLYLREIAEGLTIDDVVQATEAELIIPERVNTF
Description: CoA transferase assay, acetoacetyl-CoA formation at […] nm. The settings on record: 4 mM MgCl2, 50 mM Tris/HCl pH 8.1. Type of data set: biochemical.

Substrate in data set [3]: O=C(O)CCC(=O)C(=O)O
Description: purified protein. It counts as biochemical, Cloacimonas acidaminivorans (SeqCode). The settings on record: 25 µM (3S)-3-aminobutyryl-CoA, 50 mM Tris/HCl pH 8.1, 5 mM MgCl2.

Substrate in data set [4]: C[C@H](N)CC(=O)SCCNC(=O)CCNC(=O)[C@H](O)C(C)(C)COP(=O)(O)OP(=O)(O)OC[C@H]1O[C@@H](n2cnc3c(N)ncnc32)[C@H](O)[C@@H]1OP(=O)(O)O
The data set is described as follows: purified protein. The settings on record: 50 mM α-ketoglutarate, 50 mM Tris/HCl pH 8.1, 5 mM MgCl2. Type of data set: biochemical, Cloacimonas acidaminivorans (SeqCode).

Consider `CC(=O)C(=O)O` [pyruvate], for which the “K m (M)” value in data set [1] is 20.1±1.3 10^−3 M.

For the molecule `CC(=O)SCCNC(=O)CCNC(=O)[C@H](O)C(C)(C)COP(=O)(O)OP(=O)(O)OC[C@H]1O[C@@H](n2cnc3c(N)ncnc32)[C@H](O)[C@@H]1OP(=O)(O)O` [acetyl-CoA], the “CoA transferase assay, acetoacetyl-CoA formation at 310 nm” value in data set [2] (10 mM acetoacetate) is “formation in vitro of acetoacetyl-CoA and acetate from acetoacetate and acetyl-CoA”.

On to `CC(=O)CC(=O)O` [acetoacetate], for which, in data set [2] (acetyl-CoA as CoA donor), the “CoA transferase assay, acetoacetyl-CoA formation at 310 nm” value is “formation in vitro of acetoacetyl-CoA and acetate from acetoacetate and acetyl-CoA”.

B1: Kat (HemL-like), 3-aminobutyryl-CoA aminotransferase (Candidatus Cloacimonas acidaminivorans str. Evry) (protein)
chain: MAEKLKLARSMSLFEEAKQLVPGGVAGIRRPYNFVPGEYPIFFDHGKGGRVVDVDGNEYIDFLCAYGPIIIGYREDEIDDAVINQIKNKGFCFSLTQEMQNTLVKKLRELIPCCEMAALVKTGSDATTIAIRVARGYTGKTKIARYGYHGWHDWCVEVKGGIPPKLYEDIYEFHYNDLDSLKAILEANKDDMAGIIITPIGHPNGAEVQMPKPGYLEAVRELANQYHCLLIFDEIRSGFRCSLGGAQKLFGVTPDLSTFGKAMANGYAIAALVGKEEYMQVLADKVFLSSTFFPNSDGIVAAIKTIEILERDRILDVVAAKGRKFGAEVEKVVEESGVPVNFTGAPWMPYITFKKDEAGLYKKLRTEYYTQLIRHNVFMQPYHHGYICYRHTDEDLAYTVEAIRESLAEVKKML
notes: full-length CDS in pEXP-5-NT/TOPO, E. coli; by primers starts (M)AEKLKLA, ends EVKKML
As a reminder, the kcat is the maximal rate divided by the concentration of active sites. By kcat/Km is commonly meant the turnover number divided by the Michaelis constant. B1: in the data set “purified protein [3]”, the kcat worked out at 1.8 ± 0.1 s⁻¹ and the kcat/Km is 620 M⁻¹ s⁻¹. Also, in the data set “purified protein [4]”, the kcat turned out to be 1.8 ± 0.2 s⁻¹ and the kcat/Km worked out at 420000 M⁻¹ s⁻¹.
